What was measured:
[1] = target: T1, Trop2蛋白 (UniProt P09758 27-274); experiment: ELISA, antigen coated at 1 μg/mL
T1 sequence (looked up): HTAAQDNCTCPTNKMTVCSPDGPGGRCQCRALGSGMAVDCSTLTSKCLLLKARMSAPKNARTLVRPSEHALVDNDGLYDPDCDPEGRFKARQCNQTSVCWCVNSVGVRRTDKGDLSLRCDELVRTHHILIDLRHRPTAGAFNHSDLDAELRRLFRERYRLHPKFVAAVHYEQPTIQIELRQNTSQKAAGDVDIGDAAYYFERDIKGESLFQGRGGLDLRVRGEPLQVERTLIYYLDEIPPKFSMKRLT

[2] = target: T2, CD24蛋白 (UniProt P25063 27-59); experiment: ELISA, antigen coated at 1 μg/mL
T2 chain (looked up): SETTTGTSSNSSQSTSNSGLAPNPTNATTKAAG

[3] = target: T3, B7-H3蛋白 (UniProt Q5ZPR3-2 29-245, limits assumed); experiment: ELISA, antigen coated at 1 μg/mL
T3 sequence (looked up): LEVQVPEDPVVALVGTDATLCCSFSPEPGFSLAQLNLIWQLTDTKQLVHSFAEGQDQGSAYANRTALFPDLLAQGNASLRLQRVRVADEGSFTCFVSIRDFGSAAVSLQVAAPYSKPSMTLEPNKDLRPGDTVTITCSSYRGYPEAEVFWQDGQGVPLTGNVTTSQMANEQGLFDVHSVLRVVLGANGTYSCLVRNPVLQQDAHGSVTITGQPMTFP

[4] = target: EphA2蛋白 (UniProt P29317 25-534, limits assumed); experiment: ELISA, antigen coated at 1 μg/mL
EphA2蛋白, sequence (P29317 25-534 limits assumed): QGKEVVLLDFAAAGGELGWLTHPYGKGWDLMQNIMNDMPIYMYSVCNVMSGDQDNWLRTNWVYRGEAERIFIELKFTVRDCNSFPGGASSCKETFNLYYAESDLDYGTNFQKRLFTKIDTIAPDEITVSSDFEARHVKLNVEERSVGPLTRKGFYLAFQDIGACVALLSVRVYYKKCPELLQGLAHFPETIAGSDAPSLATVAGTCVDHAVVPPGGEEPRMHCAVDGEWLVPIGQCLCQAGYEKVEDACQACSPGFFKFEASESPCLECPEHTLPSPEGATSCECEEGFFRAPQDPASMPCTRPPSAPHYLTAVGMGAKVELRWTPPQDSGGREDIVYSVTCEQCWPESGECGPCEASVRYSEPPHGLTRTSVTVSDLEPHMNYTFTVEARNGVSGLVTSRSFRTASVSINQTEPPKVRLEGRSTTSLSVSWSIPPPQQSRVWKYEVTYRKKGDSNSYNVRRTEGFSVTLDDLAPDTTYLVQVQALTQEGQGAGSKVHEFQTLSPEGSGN

[5] = target: T4, human-siglec-15蛋白 (human, UniProt Q6ZMC9 20-263, biotinylated in the BLI assay and in phage panning (site not stated)); experiment: BLI (Octet RED96), biotinylated siglec-15 on SA sensor, antibody at 5, 10, 20 μg/mL
T4 construct: Bought protein (Novoprotein for ELISA coating; biotinylated antigen from Obiosh for panning); The same entry is used for the plain and the biotinylated protein; also called hsiglec-15; siglec-15抗原
T4 sequence (looked up): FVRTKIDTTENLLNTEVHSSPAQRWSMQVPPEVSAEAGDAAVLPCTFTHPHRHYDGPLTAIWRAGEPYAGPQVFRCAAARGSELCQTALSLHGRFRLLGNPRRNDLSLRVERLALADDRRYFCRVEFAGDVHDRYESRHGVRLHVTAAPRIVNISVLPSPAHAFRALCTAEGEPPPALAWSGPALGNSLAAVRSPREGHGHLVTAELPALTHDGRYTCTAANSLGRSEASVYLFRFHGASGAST

binding result [1]: no binding
binding result [2]: no binding
binding result [3]: no binding
binding result [4]: no binding
Kd [5]: ~1 nM
B1: S131-IgG1 (antibody, V domains shown)
VH: QVQLQESGPGLVNPSGTLSLSCTVSGDSIRNWYSWVRQPPGKGLEWIGEIHDNGGTNHNPSLKSRVTMSVGKSTSQLSLILNSVTAADTAVYHCAREGLPDGLDIWGPGTMVTVSS
VL: SSELTQDPAVSVALGQTVRITCQGDSLRSYYASWYQRKPGQAPILVMYGQNNRPSGIPDRFSGSNSRNTASLTITGAQAEDEADYYCGSRDTSDYRVLFGGGTKLTVLG
notes: also called 抗siglec15-IgG1重组抗体S131-IgG1; 全人源抗siglec-15-IgG1抗体

Reference: patent CN117924498A (UNIV SOUTHWEST MEDICAL, dated 2024)
